Measurements reported in patent US20210253725A1 (BIONTECH, published 2021).
Where a chain is given by its changes, count along the chain named. Numbers in names are those of the source.

T1: CD27 protein (His-tagged, Sino Biological Inc. 10039-H08B1) (human, UniProt P26842 20-192)
T1 construct: bought; coated onto ELISA plates; also called human CD27; recombinant protein; not shown: His tag
T1 sequence (looked up): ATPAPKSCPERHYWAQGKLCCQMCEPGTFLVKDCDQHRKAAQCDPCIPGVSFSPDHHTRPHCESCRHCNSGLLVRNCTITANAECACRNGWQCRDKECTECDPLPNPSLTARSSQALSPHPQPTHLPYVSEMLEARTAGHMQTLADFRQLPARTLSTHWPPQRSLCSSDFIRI

T2: CD27 expressed on the cell surface (HT1080_CD27 cells) (human, UniProt P26842 20-260)
T2 sequence (looked up): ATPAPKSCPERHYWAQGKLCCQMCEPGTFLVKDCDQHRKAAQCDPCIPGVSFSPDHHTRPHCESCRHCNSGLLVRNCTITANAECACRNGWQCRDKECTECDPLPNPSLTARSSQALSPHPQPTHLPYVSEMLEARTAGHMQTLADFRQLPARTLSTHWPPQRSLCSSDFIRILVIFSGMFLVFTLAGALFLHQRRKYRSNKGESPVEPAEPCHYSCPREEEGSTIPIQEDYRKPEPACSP

B1: P018.S.03.A.H05 (antibody, V domains shown)
VH: QSLEESGGDLVKPGASLTLTCTASGFSFSDRHYMCWVRQAPGKGLEWIGSIYTGKDSIDYASWAKGRFTISKTSSTTVTLQMTSLTAADTATYFCARDLLYGSSSGYLHTWGPGTLVTVSS
VL: DIVMTQTPSSVSEPVGGTVTIKCQASHNIYSNLAWYQQKLGQPPKLLIYYASTLASGVPSRFKGSGSGTEYTLTISDLESDDAATYYCQSAYYGSIDITFGGGTEVVAQ
notes: V regions on human Ig constant parts; also called AB27_63
B2: P018.S.07.A.B03 (antibody, V domains shown)
VH: QSVEESGGRLVTPGTPLTLTCTVSGFSLSSYAMGWVRQAPGKGLEWIGDIYGSGSTYYASWAKGRFTFSRTSTTVDLKMTSLTTEDTATYFCARSKGYNYNLWNLWGQGTLVTVSS
VL: DIVMTQTPSSVSAAVGGTVTINCQASQNIYTNLAWYQQKPGQRPKLLIYDASDLASGVPSRFSGSGSGTEYTLTISDLESADAATYYCQTYSYSGSSSANPFGGGTEVVVK
notes: V regions on human Ig constant parts; also called AB27_115
B3: P018.S.03.A.H04 (antibody, V domains shown)
VH: QSLEESGGRLVTPGTPLTLTCTASGFSLSNYSMNWVRQAPGKGLEWIGIINTYGSAYYASWAKGRFTISKTSTTVDLKMTSLTTEDTATYFCARDAGGSTVPWFFDVWGPGTLVTVSS
VL: AYDMTQTPASVEVAVGGTVTIKCQASQTISNYLAWYQQKPGQRPKLLIYDASKLASGVPSRFDGSGSGTEYTLTISGVGSADAATYYCQQGYADSNVDNVFGGGTEVVVK
notes: V regions on human Ig constant parts; also called AB27_62
B4: P018.S.05.A.E04 (antibody, V domains shown)
VH: QEQLEESGGDLVKPEGSLTLTCTASGFSFSSYWICWVRQAPGKGLEWIACIATHSGTDFYASWAKGRFTISKTSSTTVTLQMTSLTAADTATYFCARDPYGFNGDYFSLWGPGTLVTVSS
VL: ALVMTQTPASVSAAVGGTVTINCQASQSVYNSNYLSWYQQKPGQPPKLLIYKASTLASGVPSRFKGSGSGTQFTLTISGVESDDAATYYCAGYKSYTNDDNGFGGGTEVVVK
notes: V regions on human Ig constant parts; also called AB27_90
B5: P018.S.02.A.G03 (antibody, V domains shown)
VH: QSVEESGGRLVTPGTPLTLTCTVSGFSLSSYVMSWVRQAPGKGLEWIGYIDYGGTAYYASWAKGRFTISKTSTTVELKITSPTIEDTATYFCARGGYGGYILVTGLWGPGTLVTVSS
VL: DIVMTQTPASVSEPVGGTVTIKCQASQTIISYLSWYQQKPGQPPKLLIYGASTLASGVPSRFKGSGSVTEYTLTISDLESADAATYYCQTYYGGGPFGNGFGGGTEVVVK
notes: V regions on human Ig constant parts; also called AB27_38
B6: P018.S.02.A.F06 (antibody, V domains shown)
VH: B5 VH with A56P
VL: B5 VL with I2V, T28S, I30S, L33C, K39R, V68G
notes: V regions on human Ig constant parts; also called AB27_36
B7: P018.S.09.A.H04 (antibody, V domains shown)
VH: B5 VH with I50S, S60N, G98D, I101L
VL: B5 VL with T28S, I30S, S34A, G50S, P59S, V68G
notes: V regions on human Ig constant parts; also called AB27_161
B8: P018.S.04.A.H04 (antibody, V domains shown)
VH: QSVEESGGRLVTPGTPLTLTCTVSRFSLSTSTMTWVRQAPGKGLEWIGIINGGGSAYYANWAKGRFTISKTSTTVDLKITSPTTEDTATYFCARSYDSYDDIYGTSRLYAFDPWGPGTLVTVSS
VL: AYDMTQTPASVEVAVGGTVTINCQASESIYSNLAWYQQKPGQPPKLLIYRASYLASGVSSRFKGSGSGTQFTLTISGVESADAATYYCQQGYSSSDVDNAFGGGTEVVVK
notes: V regions on human Ig constant parts; also called AB27_79
B9: P018.S.04.A.F04 (antibody, V domains shown)
VH: QSVEESGGRLVTPGTPLTLTCTVSGFSLSNYAMSWVRQAPGKGLEWIGIIYASGTTYYARWAKGRFTISRTSTTVDLKISSPTTEDTATYFCAREYDSYDYAYGSSIYAFDPWGPGTLVTVSS
VL: B8 VL with A9S, E12S, V13A, N22K, P43R, Y53T, T74S, D96N, A100V
notes: V regions on human Ig constant parts; also called AB27_77
B10: P018.S.03.A.C02 (antibody, V domains shown)
VH: B8 VH
VL: B8 VL with A14V, N22S, S31A, D96N, A100S
notes: V regions on human Ig constant parts; also called AB27_44
B11: P018.S.07.A.B06 (antibody, V domains shown)
VH: QEQLVESGGDLVKPGTSLTLTCKASGLDFSSTPYMCWVRQAPGKGLEWIACIYTGSVIYTYYASWAKDRFTISKISSTSVTLQMTSLTVADTATYFCARSPAGYAAYGYGGFNLWGPGTLVTVSS
VL: AIEMTQTPFSVSAAVGGTVTINCQASQNIYNNLAWYQQKPGQPPKLLIYGASTLESGVPSRFEGSGSGTEYTLTISDLESDDAATYYCQSAYYSSSATDMAFGGGTEVVVK
notes: V regions on human Ig constant parts; also called AB27_118
B12: P018.S.02.A.C06 (antibody, V domains shown)
VH: QEQLEESGGGLVQPEGSLTLTCKASGIDFSSNYYISWVRQAPGKGLEWIGCIYTGSDDAAYYASWAKGRFTISKTSSTTVTLQMTSLTAADTATYFCAREILYPTNTDSFDLWGPGTLVTVSS
VL: AQVLTQTPSSVSEPVGGIVTINCQASESISSRLAWYQQKPGQPPKLLIYRAATLASGVPSRFKGSGSGTDFTLTISDLESADAATYYCQSYVGASSGGYFFGGGTEVVVK
notes: V regions on human Ig constant parts; also called AB27_32
B13: P018.S.01.A.B04 (antibody, V domains shown)
VH: QEQLEESGGRLVTPGGTLTLTCTASGFSLSSYDMSWVRQAPGKGLEWIGYIWSDGNTDYASWAAGRFTASRASTTVDLKMTSLTTEDTATYFCARGYTGFFLWGPGTLVTVSS
VL: DVVMTQTPSSVSAAVGGTVTIKCQASQSIGSSYLSWYQQKPGQPPKLLIYKTSTLASGVPSRFKGSGSGTEFTLTISDLESDDAATYYCQCTYYGGSWRVAFGGGTEVVVK
notes: V regions on human Ig constant parts; also called AB27_5
B14: P018.S.01.A.B05 (antibody, V domains shown)
VH: B13 VH with S61T
VL: B13 VL with G96S
notes: V regions on human Ig constant parts; also called AB27_6
B15: P018.S.05.A.H02 (antibody, V domains shown)
VH: B13 VH with S30N
VL: B13 VL with K51E, T52A
notes: V regions on human Ig constant parts; also called AB27_94
B16: P018.S.01.A.D04 (antibody, V domains shown)
VH: B13 VH with S31N
VL: B13 VL with A13T, G17D
notes: V regions on human Ig constant parts; also called AB27_12
B17: P018.S.01.A.G02 (antibody, V domains shown)
VH: B13 VH with S61T
VL: B13 VL
notes: V regions on human Ig constant parts; also called AB27_21

Legend:
[1] = biological target: T1, CD27 protein (His-tagged, Sino …); assay: ELISA on coated His-tagged CD27
[2] = biological target: T2, CD27 expressed on the cell surface …; assay: cell-based or functional assay
[3] = biological target: T2, CD27 expressed on the cell surface …; assay: cellular binding assay, HT1080_CD27 cells
Also: test concentration or dose not given here.

| Binder | ELISA [abs. corr.] [1] | IL-8, cross-linked by F(ab')2 fragment [abs. corr.] [2] | IL-8 [abs. corr.] [2] | Cellular binding assay [RFU] [3] |
| --- | --- | --- | --- | --- |
| B1 | 3.36 abs. corr. | 1.39 abs. corr. | 0.401 abs. corr. | 294 RFU |
| B2 | 3.37 abs. corr. | 1.34 abs. corr. | 0.612 abs. corr. | 346 RFU |
| B3 | 3.59 abs. corr. | 1.23 abs. corr. | 0.211 abs. corr. | 334 RFU |
| B4 | 3.35 abs. corr. | 1.33 abs. corr. | 0.813 abs. corr. | 332 RFU |
| B5 | 3.13 abs. corr. | 1.48 abs. corr. | -0.061 abs. corr. | 357 RFU |
| B6 | 3.24 abs. corr. | 1.73 abs. corr. | 0.094 abs. corr. | 294 RFU |
| B7 | 3.36 abs. corr. | 1.4 abs. corr. | 0.274 abs. corr. | 314 RFU |
| B8 | 3.46 abs. corr. | 1.98 abs. corr. | 0.579 abs. corr. | 291 RFU |
| B9 | 3.35 abs. corr. | 2.49 abs. corr. | 1.6 abs. corr. | 320 RFU |
| B10 | 3.36 abs. corr. | 1.58 abs. corr. | 0.373 abs. corr. | 317 RFU |
| B11 | 3.35 abs. corr. | 1.07 abs. corr. | 0.218 abs. corr. | 372 RFU |
| B12 | 3.37 abs. corr. | 1.59 abs. corr. | 0.418 abs. corr. | 348 RFU |
| B13 | 3.36 abs. corr. | 2.12 abs. corr. | 0.582 abs. corr. | 382 RFU |
| B14 | 3.5 abs. corr. | 1.88 abs. corr. | 0.453 abs. corr. | 376 RFU |
| B15 | 3.47 abs. corr. | 1.9 abs. corr. | 0.369 abs. corr. | 336 RFU |
| B16 | 3.4 abs. corr. | 2.2 abs. corr. | 0.175 abs. corr. | 341 RFU |
| B17 | 3.67 abs. corr. | 1.88 abs. corr. | 0.848 abs. corr. | 363 RFU |
